Results reported in article PMC8938504 (Nature Communications, 2022).

Columns and labels:
[1] = target: 6×His-tagged AVR-Pia (Magnaporthe oryzae); experiment: SPR; […] (single-cycle kinetics, […]; 25 °C; 20 mM Tris pH 8, 150 mM NaCl, 0.5 mM DTT; […]; conditions: both partners purified
[2] = target: 6×His-tagged AVR1-CO39 (Magnaporthe oryzae); experiment: as above; conditions: both partners purified
Chain of 6×His-tagged AVR1-CO39 (Magnaporthe oryzae) (F7J0N2 982-1116): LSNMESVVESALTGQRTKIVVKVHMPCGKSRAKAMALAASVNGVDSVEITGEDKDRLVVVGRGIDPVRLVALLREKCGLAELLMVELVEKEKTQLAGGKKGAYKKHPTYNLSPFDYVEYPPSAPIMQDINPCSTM

Chain of 6×His-tagged AVR-Pia (Magnaporthe oryzae) (F7J0N2 982-1116): as above

B1: MBP:RGA5_HMA (wild-type RGA5 HMA domain fused to the maltose-binding protein) (domain or fragment)
chain: SALTGQRTKIVVKVHMPCGKSRAKAMALAASVNGVDSVEITGEDKDRLVVVGRGIDPVRLVALLREKCGLAELLMVELVEKE
Kd [1]: 7.2 µM | Kd [2]: 4.9 µM
